Publication PMC6085627

Target: Human TLR4/MD-2 complex (human) (UniProt O00206)
Assay: SPR; Biacore T200; TLR4/MD-2 amine-coupled on CM5 (1100 RU); GST-A-box, GST-B-box (150-5000 nM), A-box or GST injected at 30 μL/min for 60 s, 25 °C, dissociation 1 min; HBS-EP pH 7.4; GST-A-box: association and dissociation fitted separately to a 1:1 model; GST-B-box: steady-state affinity model; apparent KD

Sequence of Human TLR4/MD-2 complex (human) (O00206 24-631, chain 1 of 2): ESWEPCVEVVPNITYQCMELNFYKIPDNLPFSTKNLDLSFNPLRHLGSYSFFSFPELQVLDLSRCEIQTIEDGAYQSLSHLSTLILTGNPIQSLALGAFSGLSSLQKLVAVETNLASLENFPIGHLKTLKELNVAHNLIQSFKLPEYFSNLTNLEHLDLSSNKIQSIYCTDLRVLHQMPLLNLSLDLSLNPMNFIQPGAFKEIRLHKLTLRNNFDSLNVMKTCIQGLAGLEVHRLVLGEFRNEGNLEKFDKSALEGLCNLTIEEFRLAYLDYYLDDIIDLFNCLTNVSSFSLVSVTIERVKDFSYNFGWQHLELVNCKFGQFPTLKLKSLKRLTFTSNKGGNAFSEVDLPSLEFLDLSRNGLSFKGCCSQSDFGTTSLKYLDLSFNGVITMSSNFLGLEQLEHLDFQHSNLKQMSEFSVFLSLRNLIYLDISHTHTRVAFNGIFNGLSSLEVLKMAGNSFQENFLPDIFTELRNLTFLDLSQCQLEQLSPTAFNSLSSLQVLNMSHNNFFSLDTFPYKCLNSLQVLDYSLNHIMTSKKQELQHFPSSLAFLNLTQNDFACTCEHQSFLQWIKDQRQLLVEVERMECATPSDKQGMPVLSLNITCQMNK
Sequence of Human TLR4/MD-2 complex (human) (Q9Y6Y9 19-160, chain 2 of 2, further chain): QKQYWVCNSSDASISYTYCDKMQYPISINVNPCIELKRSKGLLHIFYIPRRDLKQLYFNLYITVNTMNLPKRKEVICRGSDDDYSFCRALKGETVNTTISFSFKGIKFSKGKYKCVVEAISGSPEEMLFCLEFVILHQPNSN

Kd: 5.78 µM
Substance: Recombinant GST-B-box (domain or fragment)
